Publication PMC4291483 (The EMBO Journal, 2014)

Biological target: T1, purified STIL[N] (aa1-1018) (human, UniProt Q15468 1-1018)
T1 sequence (looked up): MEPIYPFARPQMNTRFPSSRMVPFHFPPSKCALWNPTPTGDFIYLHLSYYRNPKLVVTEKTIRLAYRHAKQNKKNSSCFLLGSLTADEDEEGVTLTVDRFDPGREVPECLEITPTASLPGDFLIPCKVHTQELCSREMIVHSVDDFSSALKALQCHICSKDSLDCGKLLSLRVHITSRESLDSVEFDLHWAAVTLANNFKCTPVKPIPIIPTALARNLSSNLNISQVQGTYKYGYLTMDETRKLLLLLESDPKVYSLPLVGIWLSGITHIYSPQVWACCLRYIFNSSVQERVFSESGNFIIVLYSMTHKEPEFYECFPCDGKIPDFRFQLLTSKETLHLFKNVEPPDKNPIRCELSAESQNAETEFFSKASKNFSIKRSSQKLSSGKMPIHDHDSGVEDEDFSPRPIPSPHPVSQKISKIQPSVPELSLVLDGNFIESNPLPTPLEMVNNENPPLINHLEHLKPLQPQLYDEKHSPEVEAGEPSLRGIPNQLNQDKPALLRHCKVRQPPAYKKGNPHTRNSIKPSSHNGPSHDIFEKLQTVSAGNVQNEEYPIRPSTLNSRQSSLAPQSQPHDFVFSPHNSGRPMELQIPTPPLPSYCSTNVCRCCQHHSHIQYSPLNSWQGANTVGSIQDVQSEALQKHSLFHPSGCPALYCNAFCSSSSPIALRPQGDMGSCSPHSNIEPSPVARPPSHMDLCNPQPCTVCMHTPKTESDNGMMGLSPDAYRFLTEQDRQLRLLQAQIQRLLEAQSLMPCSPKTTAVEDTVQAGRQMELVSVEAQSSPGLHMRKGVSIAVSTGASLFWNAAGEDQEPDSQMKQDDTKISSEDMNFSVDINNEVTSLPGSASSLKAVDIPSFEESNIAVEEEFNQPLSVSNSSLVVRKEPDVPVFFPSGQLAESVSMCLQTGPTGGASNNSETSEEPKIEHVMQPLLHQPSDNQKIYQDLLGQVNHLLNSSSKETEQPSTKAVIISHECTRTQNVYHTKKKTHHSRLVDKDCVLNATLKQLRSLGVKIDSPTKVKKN
Test: pull-down; GST-RBM14 fragments retained on Glutathione sepharose beads, incubated with ~5 μg bacterially purified STIL[N] for 2 h at 4°C in lysis buffer; SDS-PAGE, SimplyBlue Safe stain
Details: both partners purified

binding result: binds
B1: GST-RBM14[C] (domain or fragment, human, UniProt Q96PK6 151-669, looked up)
chain: QKKGPGLAVQSGDKTKKPGAGDTAFPGTGGFSATFDYQQAFGNSTGGFDGQARQPTPPFFGRDRSPLRRSPPRASYVAPLTAQPATYRAQPSVSLGAAYRAQPSASLGVGYRTQPMTAQAASYRAQPSVSLGAPYRGQLASPSSQSAAASSLGPYGGAQPSASALSSYGGQAAAASSLNSYGAQGSSLASYGNQPSSYGAQAASSYGVRAAASSYNTQGAASSLGSYGAQAASYGAQSAASSLAYGAQAASYNAQPSASYNAQSAPYAAQQAASYSSQPAAYVAQPATAAAYASQPAAYAAQATTPMAGSYGAQPVVQTQLNSYGAQASMGLSGSYGAQSAAAATGSYGAAAAYGAQPSATLAAPYRTQSSASLAASYAAQQHPQAAASYRGQPGNAYDGAGQPSAAYLSMSQGAVANANSTPPPYERTRLSPPRASYDDPYKKAVAMSKRYGSDRRLAELSDYRRLSESQLSFRRSPTKSSLDYRRLPDAHSDYARYSGSYNDYLRAAQMHSGYQRRM
